Type in all cases: physicochemical
Series [1] is described as follows: Retention of peptides 2DOS-1 to 2DOS-16 on a hydrophobic surface (polypropylene microtitre plate wells), water wash. The conditions noted are these: 400V scan; for Initial fluorescence (×10^3): 100 μl of 10 μM peptide before drying and washing; for Recovered fluorescence (×10^3): dried, washed ten times with 250 μl water, resuspended. As to the method: The retention of peptides 2DOS-1 to 2DOS-16 on a hydrophobic surface (the wells of a polypropylene microtitre plate) was then investigated.
(§1) 10 mM tris-HCl (pH 8.0) in 50% (v/v) aqueous acetonitrile was used as the solvent for the peptides and for TAMRA.
100 μl aliquots of 10 μM peptides 2DOS-1 to 2DOS-16 and 10 μM TAMRA were placed in the wells of a Costar microtitre plate as shown in FIG. 13:
The microtitre plate was imaged at 200 μm resolution on a Typhoon Trio Plus variable mode imager (Amersham Biosciences) with the green (532 nm) laser and the 580 BP 30 filter at the PMT voltages indicated below and at normal sensitivity. The scan height was set at +3 mm and the sample was pressed during scanning.
The peptides were allowed to evaporate to dryness overnight in the dark and the microtitre plate was again scanned as described above.
The wells were then washed ten times with 250 μl of water.
The residual surface-bound peptides were finally resuspended in 100 μl of 10 mM tris-HCl (pH 8.0) in 50% (v/v) aqueous acetonitrile and the microtitre plate was again scanned as described above.
(§2) The fluorescence images were analysed using ImageQuant TL v2003.03 (Amersham Biosciences).
Quantification data (using the data from the 400V scan) is given in Table 2 and shown graphically in FIG. 15.

The nature of series [2]: Retention of peptides in V-bottomed polypropylene wells. As to conditions: V-bottom wells, 500V scan; for Untreated fluorescence: unwashed; for Retained fluorescence: washed 15 minutes in 1 M NaCl in 10 mM tris-HCl (pH 8.0). How it is done: (§3) The retention of peptides 2DOS-1 to 2DOS-16 (see above) on polypropylene wells of different geometries was investigated:
as §1
(§4) 1 μl aliquots of 10 μM peptides 2DOS-1 to 2DOS-16 and 10 μM TAMRA were pipetted into the wells of a Costar V-bottomed polypropylene microtitre plate and a Greiner flat-bottomed polypropylene microtitre plate according to the following scheme as shown in FIG. 22:
(§5) The peptide samples were allowed to evaporate to dryness in the dark.
(§6) The peptide samples in the top two rows of the microtitre plates were then incubated for 15′ minutes at room temperature in 250 μl of 1 M NaCl in 10 mM tris-HCl (pH 8.0).
(§7) After incubation, the wash buffer was pipetted up and down eight times in the well before removing the supernatant.
(§8) The washed and untreated peptide samples were then resuspended in 50 μl of 10 mM tris-HCl (pH 8.0) in 50% (v/v) aqueous acetonitrile.
(§9) The microtitre plates were imaged at 200 μm resolution on a Typhoon Trio Plus variable mode imager (Amersham Biosciences) with the green (532 nm) laser and the 580 BP 30 filter at the PMT voltages indicated below and at normal sensitivity. The scan height was set at the platen and the sample was pressed during, scanning.
as §2

Series [3] in a line: Retention of peptides in flat-bottomed polypropylene wells. As to conditions: flat-bottom wells, 500V scan; for Untreated fluorescence: unwashed; for Retained fluorescence: washed 15 minutes in 1 M NaCl in 10 mM tris-HCl (pH 8.0). As to the method: as §3, §1, §4, §5, §6, §7, §8, §9, §2
Series [4] can be described thus: Retention of peptides on Costar polypropylene V-bottom wells. As to conditions: 400V scan; for Untreated fluorescence: unwashed; for Retained fluorescence: washed 15 minutes in 1 M NaCl in 10 mM tris-HCl (pH 8.0). How it is done: (§10) The retention of peptides 2DOS-1 to 2DOS-16 (see above) on polypropylene and polystyrene surfaces was compared:
(§11) 5 mM tris-HCl (pH 8.0) in 75% (v/v) aqueous acetonitrile was used as the solvent for the peptides and for TAMRA.
(§12) 20 μl aliquots of 5 μM peptides 2DOS-1 to 2DOS-16 and 5 μM TAMRA were pipetted into the wells of a Costar V-bottomed polypropylene microtitre plate, a Greiner V-bottomed polypropylene microtitre plate, and a Greiner V-bottomed polystyrene microtitre plate according to the scheme shown in FIG. 26:
as §5
(§13) The peptide samples in the top two rows of the microtitre plates were then incubated for 15 minutes at room temperature in 250 μl of 1 M NaCl in 10 mM tris-HCl (pH 8.0).
as §7, §8
(§14) The microtitre plates were imaged at 200 μm resolution on a Typhoon Trio Plus variable mode imager (Amersham Biosciences) with the green (532 nm) laser and the 580 BP 30 filter at the PMT voltages indicated below and at normal sensitivity. The scan height was set at +3 mm and the sample was pressed during scanning.
as §2

Series [5] can be described thus: Retention of peptides on Greiner polypropylene V-bottom wells. As to conditions: 400V scan; for Untreated fluorescence: unwashed; for Retained fluorescence: washed 15 minutes in 1 M NaCl in 10 mM tris-HCl (pH 8.0). How it is done: as §10, §11, §12, §5, §13, §7, §8, §14, §2
A short description of series [6]: Retention of peptides on Greiner polystyrene V-bottom wells. The conditions noted are these: 400V scan; for Untreated fluorescence: unwashed; for Retained fluorescence: washed 15 minutes in 1 M NaCl in 10 mM tris-HCl (pH 8.0). How it is done:
as §10, §11, §12, §5, §13, §7, §8, §14, §2

Ends that are not written are not given here.

With “N-TAMRA-Asp-Phe- Ala-Phe-Ser-Phe- Lys-C ({TAMRA}-DFAFSFK) [Peptide 2DOS-6]”, in series [1], the “Initial fluorescence (×10^3)” value was 33,853 ×10^3. Besides, the “Recovered fluorescence (×10^3)” value in series [1] is listed as 1,455 ×10^3. Moreover, the Percent retention in series [2] was 39%; in series [3] it was 36%; in series [4], 22%; in series [5] it was 22%; in series [6] it was 25%. The Untreated fluorescence is 9,141,290 in series [2]; 14,539,109 in series [3]; 5,733,046 in series [4]; 3,889,995 in series [5]; 666,352 in series [6]. Besides, the Retained fluorescence is 3,527,116 in series [2]; 5,256,539 in series [3]; 1,256,204 in series [4]; 849,582 in series [5]; 167,118 in series [6].

Take “N-TAMRA-Asp-Phe- Asp-Phe-Asp-Phe- Asp-C ({TAMRA}-DFDFDFD) [Peptide 2DOS-14]”: the “Initial fluorescence (×10^3)” value in series [1] is on record as 28,071 ×10^3. In addition, the “Recovered fluorescence (×10^3)” value in series [1] is on record as 283 ×10^3. The Percent retention came out at 13% in series [2]; 4% in series [3]; 11% in series [4]; 13% in series [5]; 9% in series [6]. Further, the Untreated fluorescence in series [2] is 7,641,246; in series [3] it was 15,090,582; in series [4] it was 5,331,894; in series [5] it was 3,612,113; in series [6], 860,811. Also, the Retained fluorescence in series [2] is 1,018,179; in series [3] it was 670,341; in series [4] it was 595,959; in series [5] it was 461,468; in series [6], 75,304.

With “N-TAMRA-Asp-Ser- Ala-Ser-Ser-Ser- Lys-C ({TAMRA}-DSASSSK) [Peptide 2DOS-7]”, in series [1], the “Initial fluorescence (×10^3)” value was 29,134 ×10^3. Further, in series [1], the “Recovered fluorescence (×10^3)” value is 0 ×10^3. Moreover, the Percent retention in series [2] came to 9%; in series [3] it was 13%; in series [4], 6%; in series [5], 5%; in series [6] it was 2%. For the same substance, the Untreated fluorescence is recorded as 8,674,544 in series [2]; 10,189,473 in series [3]; 5,139,578 in series [4]; 3,751,280 in series [5]; 706,200 in series [6]. Further, the Retained fluorescence is 746,596 in series [2]; 1,303,195 in series [3]; 326,328 in series [4]; 205,430 in series [5]; 15,766 in series [6].

Regarding “N-TAMRA-Asp-Ser- Asp-Ser-Asp-Ser- Asp-C ({TAMRA}-DSDSDSD) [Peptide 2DOS-15]”, in series [1], the “Initial fluorescence (×10^3)” value is 30,845 ×10^3. Also, the “Recovered fluorescence (×10^3)” value in series [1] was 2 ×10^3. Further, the Percent retention in series [2], in series [3], in series [4], in series [5] and in series [6] was 1% each time. The Untreated fluorescence in series [2] is given as 10,493,100; in series [3] it was 15,290,885; in series [4], 6,488,130; in series [5], 4,771,265; in series [6], 868,334. The Retained fluorescence in series [2] was 122,851; in series [3], 104,523; in series [4] it was 50,584; in series [5], 65,142; in series [6] it was 5,116.

Consider “N-TAMRA-Norleu- Asp-Norleu-Ala- Norleu-Ser-Norleu- Lys-Norleu-C [Peptide 2DOS-1]”, for which, in series [1], the “Initial fluorescence (×10^3)” value is recorded as 33,015 ×10^3. Also, the “Recovered fluorescence (×10^3)” value in series [1] is 7,459 ×10^3. Besides, the Percent retention in series [2] amounted to 70%; in series [3] it was 14%; in series [4], 52%; in series [5] it was 37%; in series [6] it was 35%. The Untreated fluorescence in series [2] is 9,550,835; in series [3], 14,949,396; in series [4] it was 6,458,364; in series [5] it was 3,328,960; in series [6], 640,145. In addition, the Retained fluorescence in series [2] is 6,641,271; in series [3], 2,157,124; in series [4], 3,366,403; in series [5] it was 1,235,460; in series [6], 225,686.

Turning to “N-TAMRA-Phe-Asp- Phe-Asp-Phe-Asp- Phe-Asp-Phe-C ({TAMRA}-FDFDFDFDF) [Peptide 2DOS-10]”, the “Initial fluorescence (×10^3)” value in series [1] is reported as 28,479 ×10^3. In series [1], the “Recovered fluorescence (×10^3)” value is 2,884 ×10^3. For the same substance, the Percent retention in series [2] came to 33%; in series [3], 39%; in series [4], 24%; in series [5], 22%; in series [6], 17%. Further, the Untreated fluorescence in series [2] is 8,445,090; in series [3] it was 13,661,609; in series [4], 6,043,214; in series [5] it was 3,043,118; in series [6], 602,771. Also, the Retained fluorescence in series [2] was 2,773,876; in series [3] it was 5,353,630; in series [4], 1,439,375; in series [5], 654,623; in series [6], 100,265.

As for “N-TAMRA-Ser-Asp- Ser-Ala-Ser-Ser- Ser-Lys-Ser-C ({TAMRA}-SDSASSSKS) [Peptide 2DOS-3]”, the “Initial fluorescence (×10^3)” value in series [1] is 32,913 ×10^3. For the same substance, the “Recovered fluorescence (×10^3)” value in series [1] is given as 8 ×10^3. Also, the Percent retention in series [2] worked out at 22%; in series [3] it was 20%; in series [4] it was 12%; in series [5], 10%; in series [6], 5%. The Untreated fluorescence in series [2] is 9,020,171; in series [3] it was 14,152,875; in series [4] it was 5,660,618; in series [5], 3,583,352; in series [6] it was 744,747. Further, the Retained fluorescence is 1,951,694 in series [2]; 2,836,015 in series [3]; 673,940 in series [4]; 342,889 in series [5]; 37,388 in series [6].
